The experiment deals with hRpn10^322–366 peptide with Y326 phosphorylated (human) (UniProt P55036). The experiment is described as follows: ITC. Background: ITC needs no label: the signal is the heat of the interaction.

Sequence of E6AP AZUL domain, E6AP[24–87] (Q05086 24-87): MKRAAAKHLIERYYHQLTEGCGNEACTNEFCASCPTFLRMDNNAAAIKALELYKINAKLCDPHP

The substance “E6AP AZUL domain, E6AP[24–87] (from UniProt Q05086 24-87) (domain or fragment)” returned a fold reduction of affinity against unphosphorylated hRpn10^322–366 of 10 fold.

(Values after article doi:10.1101/797027.)
